Measured values published in patent US11473073B2, “Aminopeptidases for protein hydrolyzates” (DUPONT NUTRITION BIOSCIENCES APS, priority 2015, dated 2022).

Tests used:
Type in all cases: biochemical
Na-caseinate = assay: Degree of hydrolysis of pre-hydrolysed Na-caseinate; conditions: Casein, 50° C., 20 hr
Method: (§1) The degree of hydrolyses (DH) describes the relative amount of cleaved peptides bounds compared to an acid hydrolyses of the same amount of protein conducted e.g. in 6 M HCL at ˜120° C. for ˜24 h. The higher the DH can therefore be applied to assess the efficiency of amino acid liberation of a general PepN such as a PepN 1 or a PepN 2 type. The cell free culture broth was concentrated (10 kDa cut-off, Sartorius, Göttingen, Germany) and desalted applying a disposal desalting column (PD10, GE, Munchen, Germany) as described by the manufacturer. As substrates were pre-hydrolysed 10% (w/w) Na-caseinate (DMK, Germany), whey protein isolate (WPI; Arla, Viby, Denmark), soy protein isolate (SPI; SUPRO® 760, DuPont, Brabrand, Denmark) and gluten suspensions were applied. The pre-hydrolysis was conducted with 1% (w/wprotein) of FOODPRO® Alkaline Protease, 1% (w/wprotein) FOODPRO® PNL for the Na-Caseinate, the WPI as well as the SPI suspension. All pre-hydrolyses were conducted at 55° C. for 18 h followed by an inactivation step at 95° C. for 20 min. Each applied PepN 2 has been inactivated at 95 C for 15 min as a control of the elimination of any carryover of amino acids from the culture broth to the final hydrolyses as well as for the sufficient inactivation of the applied endopeptidases. The hydrolyses were conducted in a 96-well micro titer plate format and consisted of 150 μL of the pre-hydrolyzed protein suspension combined with 50 μL of a PepN 2 stock solution as indicated in Table 1 below. The hydrolyses were conducted at 50° C. for 20 hr, subsequently, the hydrolysis were stopped by the addition of 20 μL 2 M TCA (Trichloroacetic acid, Sigma-Aldrich, Schnelldorf, Germany). The efficiency of the amino acid liberation of the PepN 2 types from Neosartorya fischeri and Aspergillus clavatus can be seen in Table 1 (B) and (A). […] For the gluten hydrolyses, an increased DH was noticed in the protein range from 0.02-0.3 mg/mL PepN 2.

[1] = test system: peptide WHWLQLKPGQPMY (SEQ ID NO:26); assay: Hydrolysis of proline containing peptide, LC-MS; conditions: peptide 1 mg/mL, aminopeptidase 1 ug/mL, CPB-Buffer, 55° C.; FIG. 5-7
Method: The peptide […] (SEQ ID NO:26) was hydrolysed with TRI03 and TRI035. The peptide (1 mg/mL) was incubated with 1 ug/mL of the aminopeptidase in 20 mM CPB-Buffer (20 mM Citric acid, 20 mM Phosphate. 20 mM Boric acid) at 55° C. Aliquots (50 μL) were stopped with 50 rel 5% TFA at the indicated time points and subjected to LC-MS analysis.
Capillary LC-MS/MS analyses were performed using an Agilent 1100 LC system (Agilent Technologies) interfaced to a LTQ Orbitrap Classic hybrid mass spectrometer (Thermo Scientific, Bremen, Germany). Samples were loaded onto a 15 cm Phenomenix Jupiter 4μ Proteo 90A, C4 analytical column. Separation was performed at a flow rate of 16 μL/min using a 10 min gradient of 0-40% Solvent B H2O/CH3CN/HCOOH (50/950/0.65 v/v/v) into the IONMAX® ion source (Thermo Scientific, San Jose). The LTQ Orbitrap Classic instrument was operated in a data-dependent MS/MS mode. The peptide masses were measured by the Orbitrap (MS scans were obtained with a resolution of 60 000 at m/z 400), and up to 2 of the most intense peptide m/z were selected and subjected to fragmentation using CID in the linear ion trap (LTQ). Dynamic exclusion was enabled with a list size of 500 masses, duration of 40 s, and an exclusion mass width of ±10 ppm relative to masses on the list.
The RAW files were accessed with the program Skyline 2.6.0.7176 (MacLean, B., et al., “Skyline: an open source document editor for creating and analyzing targeted proteomics experiments”, Bioinformatics, 2010, 26(7): p. 966-8) which uses the MS1 intensities to build chromatograms (Schilling, B., et al., “Platform-independent and label-free quantitation of proteomic data using MS1 extracted ion chromatograms in skyline: application to protein acetylation and phosphorylation”, Mol Cell Proteomics, 2012. 11(5): p. 202-14). The precursor isotopic import filter was set to a count of three, (M, M+1, and M+2) at a resolution of 60,000 and the most intense charge state was used. Peptide sequences of the substrate as well as cleavage products were typed into Skyline and intensities were calculated in each sample. […]

gluten = assay: Degree of hydrolysis of pre-hydrolysed gluten; conditions: 50° C., 20 hr
Method: as §1

[2] = test system: soy protein isolate (SPI); assay: Degree of hydrolysis of pre-hydrolysed soy protein isolate; conditions: 50° C., 20 hr
Method: as §1

[3] = Product inhibition of H-Ala-pNA hydrolysis by amino acid inhibitor mix; conditions: pH 9.0, 30° C.
Method: Sigma cat # D2650). […] […] and proline were dissolved in DMSO. All other amino acids were dissolved in buffer. […] The reaction was started by adding 20 μL substrate. Only one substrate concentration was used per plate.

[4] = test system: whey protein isolate (WPI); assay: Degree of hydrolysis of pre-hydrolysed whey protein isolate; conditions: 50° C., 20 hr
Method: as §1

[5] = inactivated enzyme at the highest conc.

B1: TRI035: fungal aminopeptidase type-2 (pepN_2), NCBI XP_001273779 from Aspergillus clavatus NRRL 1 (protein)
chain: MQTFGAFLVSFLAASGLAAANAPGGPGGHGRKLPVNPKTFPNEIRLKDLLHGSQKLEDFAYAYPERNRVFGGQAHLDTVNYLYRELKKTGYYDVYKQPQVHQWTRADQSLTLGGDSIQASTMTYSPSVNVTAPLSLVSKLGCAEGDYSADVKGKIALVSRGECSFAQKSVLSAKAGAVATIVYNNVDGSLAGTLGGATSELGPYSPIIGITLAAGQDLVARLQAAPTEVSLWIDSKVENRTTYNVIAQTKGGDPNNVVALGGHTDSVENGPGINDDGSGVISNLVVAKALTRYSVKNAVRFCFWTAEEFGLLGSNYYVDNLSPAELAKIRLYLNFDMIASPNYALMIYDGDGSAFNLTGPPGSAQIESLFENYYKSIKQGFVPTAFDGRSDYEGFILKGIPAGGVFTGAESLKTEEQARLFGGQAGVALDANYHAKGDNMTNLNHKAFLINSRATAFAVATYANNLSSIPPRNATVVKRESMKWTKREEPHTHGADTGCFASRVKE
modifications: Synthetic peptide with leader sequence
Work on B1 yielded a Degree of hydrolysis (Na-caseinate; PepN 2 stock 0.02 mg/mL) of 16%, a Degree of hydrolysis (Na-caseinate; PepN 2 stock 0.03 mg/mL) of 19% and a Degree of hydrolysis (Na-caseinate; PepN 2 stock 0.04 mg/mL) of 19%. For the same molecule, the Degree of hydrolysis (Na-caseinate; PepN 2 stock 0.05 mg/mL) was 20%, the Degree of hydrolysis (Na-caseinate; PepN 2 stock 0.1 mg/mL) was 21% and the Degree of hydrolysis (Na-caseinate; PepN 2 stock 0.15 mg/mL) was 23%. It also gave a Degree of hydrolysis (Na-caseinate; PepN 2 stock 0.2 mg/mL) of 24%, a Degree of hydrolysis (Na-caseinate; PepN 2 stock 0.25 mg/mL) of 24% and a Degree of hydrolysis (Na-caseinate; PepN 2 stock 0.3 mg/mL) of 24%. For the same molecule, the Degree of hydrolysis (Na-caseinate; PepN 2 stock 0.35 mg/mL) was 27%, the Degree of hydrolysis (Na-caseinate; [5]) was 8% and the “hydrolysis of WHWLQLKPGQPMY to KPGQPMY and further down to QPMY” value [1] was “can hydrolyze”. For the same molecule, the Degree of hydrolysis (gluten; PepN 2 stock 0.02 mg/mL) was 12%, the Degree of hydrolysis (gluten; PepN 2 stock 0.03 mg/mL) was 14% and the Degree of hydrolysis (gluten; PepN 2 stock 0.04 mg/mL) was 15%. For the same molecule, the Degree of hydrolysis (gluten; PepN 2 stock 0.05 mg/mL) was 15%, the Degree of hydrolysis (gluten; PepN 2 stock 0.1 mg/mL) was 17% and the Degree of hydrolysis (gluten; PepN 2 stock 0.15 mg/mL) was 18%. It also gave a Degree of hydrolysis (gluten; PepN 2 stock 0.2 mg/mL) of 17%, a Degree of hydrolysis (gluten; PepN 2 stock 0.25 mg/mL) of 19% and a Degree of hydrolysis (gluten; PepN 2 stock 0.3 mg/mL) of 19%. For the same molecule, the Degree of hydrolysis (gluten; PepN 2 stock 0.35 mg/mL) was 22%, the Degree of hydrolysis (gluten; [5]) was 4% and the Degree of hydrolysis ([2]; PepN 2 stock 0.02 mg/mL) was 11%. It also gave a Degree of hydrolysis ([2]; PepN 2 stock 0.03 mg/mL) of 12%, a Degree of hydrolysis ([2]; PepN 2 stock 0.04 mg/mL) of 13% and a Degree of hydrolysis ([2]; PepN 2 stock 0.05 mg/mL) of 14%. The Degree of hydrolysis ([2]; PepN 2 stock 0.1 mg/mL) was 16%, the Degree of hydrolysis ([2]; PepN 2 stock 0.15 mg/mL) was 15% and the Degree of hydrolysis ([2]; PepN 2 stock 0.2 mg/mL) was 17%. For the same molecule, the Degree of hydrolysis ([2]; PepN 2 stock 0.25 mg/mL) was 21%, the Degree of hydrolysis ([2]; PepN 2 stock 0.3 mg/mL) was 21% and the Degree of hydrolysis ([2]; PepN 2 stock 0.35 mg/mL) was 21%. The Degree of hydrolysis [2, 5] was 6%, the “product inhibition compared to TRI063 from A. oryzae” value [3] was “less inhibited by product” and the Degree of hydrolysis ([4]; PepN 2 stock 0.02 mg/mL) was 19%. The Degree of hydrolysis ([4]; PepN 2 stock 0.03 mg/mL) was 20%, the Degree of hydrolysis ([4]; PepN 2 stock 0.04 mg/mL) was 21% and the Degree of hydrolysis ([4]; PepN 2 stock 0.05 mg/mL) was 22%. It also gave a Degree of hydrolysis ([4]; PepN 2 stock 0.1 mg/mL) of 23%, a Degree of hydrolysis ([4]; PepN 2 stock 0.15 mg/mL) of 27% and a Degree of hydrolysis ([4]; PepN 2 stock 0.2 mg/mL) of 25%. The Degree of hydrolysis ([4]; PepN 2 stock 0.25 mg/mL) was 28%, the Degree of hydrolysis ([4]; PepN 2 stock 0.3 mg/mL) was 29% and the Degree of hydrolysis ([4]; PepN 2 stock 0.35 mg/mL) was 29%. It also gave a Degree of hydrolysis [4, 5] of 8%.
